Tested on: Escherichia coli TOP10
Assay: shrunken log2 fold change of peptide-encoding DNA abundance (4.5 h post-induction vs induction); higher = less antimicrobial activity (less host growth inhibition)
Conditions: time post-induction: 4.5 h; library: site-saturation at positions 5, 18, 19, 20
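Note: peptides expressed intracellularly from a pBAD plasmid library in pooled LB shake-flask culture, induced with 0.3% L-arabinose, DNA abundance read by NGS, three biological replicates, DESeq2 with apeglm shrinkage.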

Sequence	shrunken log2 fold change
RRIRCRPPRLPRPRPRPWQCPRP	-0.0231
RRIRNRPPRLPRPRPRPTYQPRP	-0.0398
RRIRARPPRLPRPRPRPDRTPRP	0.192
RRIRARPPRLPRPRPRPDYKPRP	-0.0382
RRIRSRPPRLPRPRPRPVAYPRP	-0.0936
RRIRERPPRLPRPRPRPEVEPRP	-0.0864
RRIRRRPPRLPRPRPRPERQPRP	0.522
RRIRFRPPRLPRPRPRPTCYPRP	-0.23
RRIRCRPPRLPRPRPRPNEAPRP	0.00978
RRIRQRPPRLPRPRPRPQDPPRP	-0.239
RRIRCRPPRLPRPRPRPEYRPRP	-0.00301
RRIRQRPPRLPRPRPRPQCFPRP	-1.14
RRIRMRPPRLPRPRPRPKEPPRP	-0.074
RRIRGRPPRLPRPRPRPTKAPRP	1.03
RRIRTRPPRLPRPRPRPEHNPRP	-0.353
RRIRLRPPRLPRPRPRPLPKPRP	0.393
RRIRQRPPRLPRPRPRPRALPRP	0.125
RRIRERPPRLPRPRPRPGLSPRP	-0.113
RRIRFRPPRLPRPRPRPRDCPRP	2.96
RRIRWRPPRLPRPRPRPWEQPRP	0.0277
RRIRWRPPRLPRPRPRPCIRPRP	-0.147
RRIRNRPPRLPRPRPRPYCTPRP	-0.169
RRIRFRPPRLPRPRPRPHWPPRP	0.251
RRIRIRPPRLPRPRPRPCEMPRP	0.0583
RRIRYRPPRLPRPRPRPVNMPRP	-0.47

Sequence	shrunken log2 fold change
RRIRSRPPRLPRPRPRPSDKPRP	-0.351
RRIRARPPRLPRPRPRPECKPRP	0.769
RRIRSRPPRLPRPRPRPQQYPRP	-0.525
RRIRIRPPRLPRPRPRPKLSPRP	0.144
RRIRDRPPRLPRPRPRPDWLPRP	0.34
RRIRQRPPRLPRPRPRPVTYPRP	-0.219
RRIRERPPRLPRPRPRPLFWPRP	0.219
RRIRERPPRLPRPRPRPPHVPRP	-0.362
RRIRRRPPRLPRPRPRPKRKPRP	0.099
RRIRERPPRLPRPRPRPKTFPRP	0.0567
RRIRKRPPRLPRPRPRPWHHPRP	-0.197
RRIRERPPRLPRPRPRPTRAPRP	0.571
RRIRKRPPRLPRPRPRPQVPPRP	0.325
RRIRPRPPRLPRPRPRPKGQPRP	0.205
RRIRKRPPRLPRPRPRPRSMPRP	-0.164
RRIRTRPPRLPRPRPRPIMTPRP	-0.0418
RRIRVRPPRLPRPRPRPSFPPRP	-0.627
RRIRHRPPRLPRPRPRPGPYPRP	-0.226
RRIRWRPPRLPRPRPRPQMEPRP	0.0344
RRIRYRPPRLPRPRPRPRLLPRP	-0.0826
RRIRPRPPRLPRPRPRPCVHPRP	-0.434
RRIRYRPPRLPRPRPRPRRQPRP	-0.232
RRIRIRPPRLPRPRPRPQDLPRP	-0.527
RRIRIRPPRLPRPRPRPPMIPRP	-0.112
RRIRPRPPRLPRPRPRPFNYPRP	-0.269

Sequence	shrunken log2 fold change
RRIRHRPPRLPRPRPRPQMKPRP	-0.553
RRIRARPPRLPRPRPRPGFMPRP	0.14
RRIRKRPPRLPRPRPRPNCPPRP	0.0785
RRIRVRPPRLPRPRPRPVQSPRP	-0.104
RRIRVRPPRLPRPRPRPVLMPRP	0.107
RRIRPRPPRLPRPRPRPGTYPRP	-0.147
RRIRVRPPRLPRPRPRPSGCPRP	-0.194
RRIRNRPPRLPRPRPRPLHYPRP	-0.147
RRIRARPPRLPRPRPRPRGPPRP	0.933
RRIRKRPPRLPRPRPRPEMTPRP	2.82
RRIRYRPPRLPRPRPRPAIEPRP	0.0193
RRIRDRPPRLPRPRPRPPFGPRP	0.225
RRIRIRPPRLPRPRPRPDTGPRP	-0.375
RRIRWRPPRLPRPRPRPLYNPRP	-0.78
RRIRKRPPRLPRPRPRPWVCPRP	0.324
RRIRDRPPRLPRPRPRPAEDPRP	-0.017
RRIRQRPPRLPRPRPRPSGGPRP	0.0203
RRIRNRPPRLPRPRPRPKCPPRP	-0.124
RRIRCRPPRLPRPRPRPPCLPRP	-0.199
RRIRDRPPRLPRPRPRPLPFPRP	-0.398
RRIRDRPPRLPRPRPRPYTNPRP	-0.647
RRIRNRPPRLPRPRPRPSDNPRP	-0.494
RRIRPRPPRLPRPRPRPLFPPRP	-0.0198
RRIRWRPPRLPRPRPRPDPVPRP	0.0369
RRIRERPPRLPRPRPRPVECPRP	-0.152

Sequence	shrunken log2 fold change
RRIRFRPPRLPRPRPRPQKNPRP	0.16
RRIRCRPPRLPRPRPRPGTHPRP	-0.243
RRIRPRPPRLPRPRPRPELGPRP	0.24
RRIRPRPPRLPRPRPRPHCRPRP	-0.198
RRIRCRPPRLPRPRPRPHPAPRP	0.34
RRIRARPPRLPRPRPRPCDKPRP	-0.152
RRIRPRPPRLPRPRPRPPSVPRP	0.321
RRIRNRPPRLPRPRPRPAVPPRP	-0.165
RRIRNRPPRLPRPRPRPSLQPRP	-0.0436
RRIRIRPPRLPRPRPRPDMVPRP	0.0032
RRIRHRPPRLPRPRPRPVSKPRP	-0.0396
RRIRYRPPRLPRPRPRPCYKPRP	-0.0156
RRIRERPPRLPRPRPRPPPHPRP	0.619
RRIRPRPPRLPRPRPRPMVVPRP	-0.153
RRIRRRPPRLPRPRPRPFFNPRP	-0.0577
RRIRLRPPRLPRPRPRPSEWPRP	-0.0637
RRIRQRPPRLPRPRPRPAVNPRP	-0.0181
RRIRQRPPRLPRPRPRPRDYPRP	0.0272
RRIRRRPPRLPRPRPRPDDPPRP	-0.0033
RRIRQRPPRLPRPRPRPMIKPRP	-0.318
RRIRGRPPRLPRPRPRPCLVPRP	0.761
RRIRLRPPRLPRPRPRPDDAPRP	-0.115
RRIRTRPPRLPRPRPRPIVCPRP	-0.246
RRIRFRPPRLPRPRPRPKERPRP	0.193
RRIRCRPPRLPRPRPRPYSSPRP	0.00688

Sequence	shrunken log2 fold change
RRIRVRPPRLPRPRPRPCCSPRP	-0.192
RRIRIRPPRLPRPRPRPQKSPRP	-0.403
RRIRARPPRLPRPRPRPRVTPRP	0.462
RRIRRRPPRLPRPRPRPWNRPRP	-0.049
RRIRMRPPRLPRPRPRPSMNPRP	-0.287
RRIRHRPPRLPRPRPRPKNLPRP	0.133
RRIRWRPPRLPRPRPRPSVIPRP	-0.272
RRIRPRPPRLPRPRPRPYKQPRP	-0.777
RRIRWRPPRLPRPRPRPHGNPRP	0.132
RRIRTRPPRLPRPRPRPYARPRP	-0.000715
RRIRLRPPRLPRPRPRPYVQPRP	-0.144
RRIRLRPPRLPRPRPRPTQQPRP	0.0862
RRIRSRPPRLPRPRPRPFCGPRP	-0.201
RRIRHRPPRLPRPRPRPGWMPRP	0.0172
RRIRYRPPRLPRPRPRPYRSPRP	0.0135
RRIRRRPPRLPRPRPRPLNWPRP	0.296
RRIRVRPPRLPRPRPRPHNEPRP	-0.811
RRIRCRPPRLPRPRPRPVAWPRP	0.163
RRIRGRPPRLPRPRPRPVFAPRP	0.696
RRIRYRPPRLPRPRPRPDEWPRP	0.0549
RRIRPRPPRLPRPRPRPVNYPRP	-0.335
RRIRWRPPRLPRPRPRPDRNPRP	0.0394
RRIRVRPPRLPRPRPRPFQDPRP	-0.0723
RRIRDRPPRLPRPRPRPNQDPRP	0.000998
RRIRPRPPRLPRPRPRPNAHPRP	0.247
